Source: patent US20230165967A1 (TAE LIFE SCIENCES, published 2023)
Where two headings read alike, the source gives them in different places.

Tests used:
[1] = target: T1, human C1q (sigma Cat #C1740) (human, UniProt P02745 23-245; P02746 28-253; P02747 29-245); assay: ELISA: plate coated with antibody at 1 ug/ml, human C1q titrated 0.625-40 ug/ml, rabbit anti-human C1q then HRP goat anti-rabbit, OD650
[2] = target: T2, recombinant human soluble ECD of CD64/FCGRIA (human, UniProt P12314 16-292); assay: ELISA: plate coated with recombinant human CD64/FCGRIA ECD, antibody titrated, HRP goat anti-human Fc, OD650
T2 construct: extracellular domain; also called FcγRI
T2 sequence (P12314 16-292): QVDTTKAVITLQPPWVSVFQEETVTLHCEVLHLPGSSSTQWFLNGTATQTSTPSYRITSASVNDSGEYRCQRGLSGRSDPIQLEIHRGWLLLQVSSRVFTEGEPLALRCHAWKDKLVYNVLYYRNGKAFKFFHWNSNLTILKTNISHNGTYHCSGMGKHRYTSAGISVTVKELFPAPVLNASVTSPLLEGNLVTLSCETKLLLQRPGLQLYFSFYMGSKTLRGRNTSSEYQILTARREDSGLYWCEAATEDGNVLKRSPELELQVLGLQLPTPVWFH

[3] = target: T3, recombinant human CDH3 full-length (human, UniProt P22223 25-829, limits assumed); assay: ELISA: plate coated with recombinant human full-length CDH3, antibody titrated 0.0003-20 nM, HRP goat anti-human Fc, OD650
T3 construct: plate-coated recombinant protein, not on cells

[4] = target: T4, recombinant human soluble ECD of hCD16a/FCGRIIIA (human, UniProt P08637 17-208); assay: ELISA: plate coated with recombinant human CD16a/FCGRIIIA ECD, antibody titrated 0.005-80 ug/ml, HRP goat anti-human Fc, OD650
T4 construct: extracellular domain; also called FcγRIIIa
T4 sequence (P08637 17-208): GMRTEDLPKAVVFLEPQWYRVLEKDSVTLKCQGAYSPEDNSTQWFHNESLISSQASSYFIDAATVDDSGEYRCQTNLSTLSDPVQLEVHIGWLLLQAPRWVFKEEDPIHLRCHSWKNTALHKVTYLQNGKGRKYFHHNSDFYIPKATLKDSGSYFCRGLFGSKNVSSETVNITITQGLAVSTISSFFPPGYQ

[5] = target: T5, FcγRIIa (CD32) (Sino Biological, cat #10374-H08H) (UniProt P12318 34-218); assay: Sandwich ELISA: anti-His capture of His-tagged FcγRIIA mixed with titrated antibody, HRP goat anti-human IgG Fc, OD650
T5 sequence (looked up): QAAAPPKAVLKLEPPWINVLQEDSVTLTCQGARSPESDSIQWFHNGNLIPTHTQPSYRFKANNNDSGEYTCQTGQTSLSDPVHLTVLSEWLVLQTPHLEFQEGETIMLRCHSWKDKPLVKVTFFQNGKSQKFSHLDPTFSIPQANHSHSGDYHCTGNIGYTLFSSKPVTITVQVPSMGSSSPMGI

[6] = target: T6, recombinant human FcRn (Sino Biological) (human, UniProt P55899 24-297; P61769 21-119); assay: ELISA at pH 6.0: plate coated with recombinant human FcRn, antibody titrated, HRP goat anti-human Fc, OD650
T6 sequence (P55899 24-297 limits assumed, chain 1 of 2): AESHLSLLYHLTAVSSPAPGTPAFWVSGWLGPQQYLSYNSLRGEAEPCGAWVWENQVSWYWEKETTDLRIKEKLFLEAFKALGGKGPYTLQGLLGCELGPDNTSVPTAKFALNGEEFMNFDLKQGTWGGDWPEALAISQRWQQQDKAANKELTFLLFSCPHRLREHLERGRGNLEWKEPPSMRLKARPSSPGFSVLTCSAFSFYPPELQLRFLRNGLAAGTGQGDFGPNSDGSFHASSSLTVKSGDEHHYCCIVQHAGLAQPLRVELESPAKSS
T6 sequence (P61769 21-119 limits assumed, chain 2 of 2): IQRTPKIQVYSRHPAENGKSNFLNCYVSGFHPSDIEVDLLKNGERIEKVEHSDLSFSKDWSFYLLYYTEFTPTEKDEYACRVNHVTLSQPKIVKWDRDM

[7] = target: T4, recombinant human soluble ECD of …; assay: ELISA: plate coated with recombinant human CD16a/FCGRIIIA ECD, antibody titrated 0.005-80 ug/ml, HRP goat anti-human Fc, OD650; remark: listed apart in the source
[8] = target: T6, recombinant human FcRn (Sino Biological); assay: ELISA at pH 6.0: plate coated with recombinant human FcRn, antibody titrated, HRP goat anti-human Fc, OD650; remark: listed apart in the source
[9] = target: T1, human C1q (sigma Cat #C1740); assay: ELISA: plate coated with antibody at 1 ug/ml, human C1q titrated 0.625-40 ug/ml, rabbit anti-human C1q then HRP goat anti-rabbit, OD650; remark: listed apart in the source
[10] = target: T2, recombinant human soluble ECD of …; assay: ELISA: plate coated with recombinant human CD64/FCGRIA ECD, antibody titrated, HRP goat anti-human Fc, OD650; remark: listed apart in the source

T1 sequence (P02745 23-245 limits assumed, chain 1 of 3): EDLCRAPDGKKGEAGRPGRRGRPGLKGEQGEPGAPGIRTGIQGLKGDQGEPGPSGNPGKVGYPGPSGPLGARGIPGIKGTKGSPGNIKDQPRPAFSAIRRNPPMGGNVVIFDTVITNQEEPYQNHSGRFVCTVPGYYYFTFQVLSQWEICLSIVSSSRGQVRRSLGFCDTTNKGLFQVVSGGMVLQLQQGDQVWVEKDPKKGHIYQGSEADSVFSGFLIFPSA
T1 sequence (P02746 28-253 limits assumed, chain 2 of 3): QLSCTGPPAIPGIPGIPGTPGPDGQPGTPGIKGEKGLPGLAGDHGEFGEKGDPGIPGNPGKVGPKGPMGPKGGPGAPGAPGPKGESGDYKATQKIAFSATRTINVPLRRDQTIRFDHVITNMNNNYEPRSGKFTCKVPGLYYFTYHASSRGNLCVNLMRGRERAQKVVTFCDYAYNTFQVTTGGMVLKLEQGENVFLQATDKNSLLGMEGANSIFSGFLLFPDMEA
T1 sequence (P02747 29-245 limits assumed, chain 3 of 3): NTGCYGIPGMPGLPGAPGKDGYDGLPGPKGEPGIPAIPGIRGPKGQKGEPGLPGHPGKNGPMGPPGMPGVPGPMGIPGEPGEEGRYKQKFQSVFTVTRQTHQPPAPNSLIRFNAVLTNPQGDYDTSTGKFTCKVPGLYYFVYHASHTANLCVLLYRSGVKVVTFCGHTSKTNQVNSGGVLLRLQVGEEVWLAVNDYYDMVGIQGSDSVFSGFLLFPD

B1: Anti-CDH3 Ab L234A, L235A, L328C (antibody, human IgG1, kappa, L234A L235A)
heavy: QVQLQQSGPGLVKPSQTLSLTCAISGDSVSSQSAAWNWIRQSPSRGLEWLGRIYYRSKWYNDYALSVKSRITINPDTSKNQFSLQLNSVTPEDTAVYYCARGEGYGREGFAIWGQGTLVTVSSASTKGPSVFPLAPSSKSTSGGTAALGCLVKDYFPEPVTVSWNSGALTSGVHTFPAVLQSSGLYSLSSVVTVPSSSLGTQTYICNVNHKPSNTKVDKRVEPKSCDKTHTCPPCPAPEAAGGPSVFLFPPKPKDTLMISRTPEVTCVVVDVSHEDPEVKFNWYVDGVEVHNAKTKPREEQYNSTYRVVSVLTVLHQDWLNGKEYKCKVSNKACPAPIEKTISKAKGQPREPQVYTLPPSREEMTKNQVSLTCLVKGFYPSDIAVEWESNGQPENNYKTTPPVLDSDGSFFLYSKLTVDKSRWQQGNVFSCSVMHEALHNHYTQKSLSLSPGK
light: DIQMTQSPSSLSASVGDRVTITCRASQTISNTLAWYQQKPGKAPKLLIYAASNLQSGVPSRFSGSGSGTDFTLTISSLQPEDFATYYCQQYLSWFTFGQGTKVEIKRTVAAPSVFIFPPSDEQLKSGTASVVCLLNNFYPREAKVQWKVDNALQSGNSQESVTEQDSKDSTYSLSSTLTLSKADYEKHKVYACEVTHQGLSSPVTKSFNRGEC
notes: Fc variant; wild-type light chain; also called Anti-CDH3 Mab triple mutant; triple mutation L234A, L235A, and L328C
binding result [1]: binds | binding result [2]: binds | EC50 (read off the curve) [3]: ~0.04 nM | binding result [4]: no binding (tested: 80 ug/ml) | binding result [5]: binds | binding result [6]: binds

B2: Anti-EGFR Ab No. 1 L234A, L235A, L328C (antibody, human IgG1, kappa, L234A L235A)
heavy: QVQLQESGPGLVKPSETLSLTCTVSGGSVSSGDYYWTWIRQSPGKGLEWIGHIYYSGNTNYNPSLKSRLTISIDTSKTQFSLKLSSVTAADTAIYYCVRDRVTGAFDIWGQGTMVTVSSASTKGPSVFPLAPSSKSTSGGTAALGCLVKDYFPEPVTVSWNSGALTSGVHTFPAVLQSSGLYSLSSVVTVPSSSLGTQTYICNVNHKPSNTKVDKKVEPKSCDKTHTCPPCPAPEAAGGPSVFLFPPKPKDTLMISRTPEVTCVVVDVSHEDPEVKFNWYVDGVEVHNAKTKPREEQYNSTYRVVSVLTVLHQDWLNGKEYKCKVSNKACPAPIEKTISKAKGQPREPQVYTLPPSREEMTKNQVSLTCLVKGFYPSDIAVEWESNGQPENNYKTTPPVLDSDGSFFLYSKLTVDKSRWQQGNVFSCSVMHEALHNHYTQKSLSLSPGK
light: not shown
notes: Fc variant; wild-type light chain; also called Anti-EGFR Mab No. 1 triple mutant; triple mutation L234A, L235A, and L328C
binding result [7]: no binding (tested: 80 ug/ml) | binding result [8]: binds | binding result [9]: binds | binding result [10]: no binding (tested: 30 ug/ml)
